Here are results for 18 molecules from patent US20140004120A1 (published 2014).

T1: rsDR5 (recombinant human DR5 extracellular domain protein) (UniProt O14763 56-183)
T1 chain: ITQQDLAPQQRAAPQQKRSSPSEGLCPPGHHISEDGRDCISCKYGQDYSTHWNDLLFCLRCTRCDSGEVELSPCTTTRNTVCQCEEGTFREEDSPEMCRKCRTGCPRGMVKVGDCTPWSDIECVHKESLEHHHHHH

B1: hB273_H2-4/hB273_L1 (antibody, V domains shown)
VH: QVQLVQSGAEVKKPGASVKVSCKASGYSFIGYFMNWMKQSPGMSLEWIGRFNPYNGDTFYNQKFKGKATLTVDKSTSTAYMELSSLRSEDTAVYFCGRSAYYFDSGGYFDYWGQGTLVTVSS
VL: DIVMTQSPLSLPVTPGEPASISCRSSQSLVHSNGNTYLHWYLQKPGQSPQLLIYKVSNRFSGVPDRFSGSGSGTDFTLKISRVEAEDVGVYYCSQSTHVPWTFGPGTKVEIKR
B2: hB273_H2-5/hB273_L1 (antibody, V domains shown)
VH: B1 VH with M43K
VL: B1 VL
B3: hB273_H1-1/hB273_L1 (antibody, V domains shown)
VH: B1 VH with K38R, S40A, S44G, I48M, K67R, A68V
VL: B1 VL
B4: hB273_H2-3/hB273_L1 (antibody)
heavy: not shown
light: DIVMTQSPLSLPVTPGEPASISCRSSQSLVHSNGNTYLHWYLQKPGQSPQLLIYKVSNRFSGVPDRFSGSGSGTDFTLKISRVEAEDVGVYYCSQSTHVPWTFGPGTKVEIKRTVAAPSVFIFPPSDEQLKSGTASVVCLLNNFYPREAKVQWKVDNALQSGNSQESVTEQDSKDSTYSLSSTLTLSKADYEKHKVYACEVTHQGLSSPVTKSFNRGEC
B5: hB273_H2-2/hB273_L1 (antibody)
heavy: not shown
light: B4 light
B6: hB273_H2-1/hB273_L1 (antibody)
heavy: not shown
light: B4 light
B7: hB273_H1/hB273_L1 (antibody, V domains shown)
VH: B1 VH with M37V, K38R, S40A, S44G, I48M, K67R, A68V, F95Y, G97A
VL: B1 VL
B8: hB273_H3/hB273_L1 (antibody, V domains shown)
VH: B1 VH with Q1E, M43K, Y80H
VL: B1 VL
B9: hB273_H1/hB273_L2 (antibody)
heavy: not shown
light: B4 light with I2V, S7T, T14S, P15L, Q50K, Y92F
B10: hB273_H1/hB273_L3 (antibody)
heavy: not shown
light: B4 light with I2V, S7T, T14S, P15L, Q50K, Y92F, P105G
B11: hB273_H3/hB273_L2 (antibody)
heavy: not shown
light: B4 light with I2V, S7T, T14S, P15L, Q50K, Y92F
B12: hB273_H2/hB273_L1 (antibody)
heavy: not shown
light: B4 light
B13: hB273_H2/hB273_L3 (antibody)
heavy: not shown
light: B4 light with I2V, S7T, T14S, P15L, Q50K, Y92F, P105G
B14: hB273_H3/hB273_L3 (antibody)
heavy: not shown
light: B4 light with I2V, S7T, T14S, P15L, Q50K, Y92F, P105G
B15: hB273_H2/hB273_L2 (antibody)
heavy: not shown
light: B4 light with I2V, S7T, T14S, P15L, Q50K, Y92F
B16: hB273_H2-1-NE/hB273_L1-NE (antibody, V domains shown)
VH: B1 VH with Q1E, G56E, G97A
VL: B1 VL with G34E
B17: hB273_H2-1-NE/hB273_L1-NF (antibody, V domains shown)
VH: B1 VH with Q1E, G56E, G97A
VL: B1 VL with G34F
B18: hB273_H2-1-NE/hB273_L1-NL (antibody, V domains shown)
VH: B1 VH with Q1E, G56E, G97A
VL: B1 VL with G34L

Positions count from the first letter of the chain named.

The target in the first experiment is T1, rsDR5 (recombinant human DR5 …). The experiment is described as follows: Biacore. On the technique in general: SPR reads the build-up and loss of mass on a sensor chip optically.
As to B1, the Kd was 1.55 nM. On the same count and under the same terms, in the case of B2 it was 1.38 nM; in that of B3, 1.83 nM. Same read-out and setting: in the case of B4 it was 2.12 nM; in that of B5, 2.14 nM; in that of B6, 1.99 nM.

Another experiment has the same target. Briefly: Biacore. This is another data set of the same source.
Regarding B7, the Kd turned out to be 5.45 nM. Regarding B8, the Kd is 2.4 nM.

In the case of B9, the Kd came to 6.53 nM. The same measure, in the same setting: next, B10: 6.04 nM; B11: 2.19 nM; B12: 4.36 nM.

As to B13, the Kd turned out to be 5.4 nM. Turning to B14, the Kd came to 2.15 nM.

Consider B15, for which the Kd turned out to be 4.47 nM.

For a further experiment the target is unchanged. Briefly: Biacore. The source holds these as a separate data set.
As to B16, the Kd turned out to be 2.02 nM. On the same count and under the same terms, next, B17: 1.76 nM; B18: 1.76 nM.

Broadly, the Kd is the equilibrium constant for the complex coming apart.
